This assay addresses T1, full length human CD154 on stably transfected mouse fibroblasts (human, UniProt P29965 1-261).
T1 construct: whole, on cells; also called membrane CD154; hCD154
T1 sequence (looked up): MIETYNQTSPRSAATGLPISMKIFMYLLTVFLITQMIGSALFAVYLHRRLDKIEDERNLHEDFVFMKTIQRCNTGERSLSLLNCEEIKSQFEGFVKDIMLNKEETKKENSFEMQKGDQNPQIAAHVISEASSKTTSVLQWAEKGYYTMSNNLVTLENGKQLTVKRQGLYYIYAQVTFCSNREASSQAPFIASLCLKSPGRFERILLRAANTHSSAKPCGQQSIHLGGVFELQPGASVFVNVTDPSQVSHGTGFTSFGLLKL
Description: flow cytometry on mouse fibroblasts transfected with human CD154, detected with PE-EA-5. On the procedure:
10⁶ mouse fibroblasts (stably transfected with full length human CD154) were incubated with CD40 NJ1 (FIGS. 7-8) or CD40 NJ3 variants (FIGS. 9-11). All the proteins were incubated at a concentration of 1-50 μg/ml at 4° C. for 60 min in total volume of 100 μl (0.5×10^6 cells). […] Analysis was performed using BD FACsCalibur. A known CD40 soluble variant was used (in the form of a FC tagged protein) as a positive control for detecting binding to CD154 (U.S. patent application No. 60/547,422, hereby incorporated by reference as if fully set forth herein) (FIG. 17-18).
Briefly, the FACS protocol was as follows. Mouse fibroblasts were trypsinized, and washed twice in PBS; cells were centrifuged at 1500 rpm for 10 min between washes. Next, the cells were re-suspended in FACS buffer (0.2% BSA and 0.02% sodium azide diluted 1/10 in PBS) to give 5-10×10⁶ cells mL. Cells were placed in FACS test-tubes at a volume of 100 or 200 microliters per tube.
Next, 2 μL (1:50) […] non-blocking antibody (EA-5 mouse IgG1 PE-conjugated, obtained from Calbiochem) or controls (same isotype PE conjugated) were added to the tubes, and incubated for 30 min at 4° C. The process of washing was then repeated with 5 mL PBS. Next, 0.5 mL PBS was added to tubes, which were read in a FACS machine (BD FACSCalibur).
In general terms: A flow cytometer gives signals particle by particle.

B1: CD40 NJ1 splice variant (receptor)
chain: EPPTACREKQYLINSQCCSLCQPGQKLVSDCTEFTETECLPCGESEFLDTWNRETHCHQHKYCDPNLGLRVQQKGTSETDTICTCEEGWHCTSEACESCVLHRSCSPGFGVKQIATGVSDTICEPCPVGFFSNVSSAFEKCHPWTSCETKDLVVQQAGTNKTDVVCGESWTMGPGESLGRWELKGEMRHTGTLDGKKGRGGSLGVWYHSSATYLGSLGKSLPLS
notes: For ELISA and FACS it was expressed non-fused with baculovirus, secreted and purified from the supernatant on a G28-5 column; also called CD40 NJ1 variant; CD40 variant NJ1
Consider B1, for which the binding result is listed as “binds”.

B2: CD40 NJ3 splice variant (receptor)
chain: EPPTACREKQYLINSQCCSLCQPGQKLVSDCTEFTETECLPCGESEFLDTWNRETHCHQHKYCDPNLGLRVQQKGTSETDTICTCEEGWHCTSEACESCVLHRSCSPGFGVKQIATGVSDTICEPCPVGFFSNVSSAFEKCHPWTSCETKDLVVQQAGTNKTDVVCGESWTMGPGESLGRSPGSAESPGGDPHHLRDPVCHPLGAGLYQKGGQEANQ
notes: For ELISA and FACS it was expressed non-fused with baculovirus, secreted and purified from the supernatant on a G28-5 column; also called CD40 NJ3 variant; CD40 variant NJ3
Turning to B2, the binding result was “binds”.
